Reference: US20030236190A1 (published 2003)
Positions of bridges follow the written chain, without caps; N, C: chain ends. No end group written: not given here.

Target: T1, Soluble IGF-1R (R&D Systems, Cat. # 391-GR/CF); recombinant human IGF-1R (human, UniProt P08069 31-935)
T1 construct: extracellular domain; Eu3+-labelled in the TR-FRET assays; also called sIGF-1R; rhIGF-1R
Assay: phage ELISA, vs IR

Going from RGIVAMVEATEVGSDHDPFYHKLSELVQGS [B6Hα-2-C7-IR] to GNGDGMFYQLLSLLVGRDMHV [20E22-3-C2-IGFR], the “IGF-1R/IR Comparison” value rises from 6.7 ratio to 13.8 ratio.

Going from IWATGDFYRLLSQLVMGRVGT [20E2B-2-88-IGFR] to FFYDCLAALLQGVARYHDLCAVEIT (disulfide 5-20 (inferred)) [20C-4-C7-IGFR], the “IGF-1R/IR Comparison” value rises from 7.2 ratio to 21.8 ratio.

First: PVGVQGFYEGLSRLVLGRGGW [20E22-4-F8-IGFR]
Second: DSVGDNFYQLLESLVGGHGVG [20E28-3-D6-IGFR]
The “IGF-1R/IR Comparison” value of the first is higher: 9.7 ratio for the first, 6.9 ratio for the second.

First: LKDGFYDYFWQRLHLGS [NNRPγ-4-B11-IR]
Second: DRAFYNGLRDLVGAVYGAWD [R20α-4-20C11-IR]
The “IGF-1R/IR Comparison” value of the first is higher: 15.5 ratio for the first, 10.3 ratio for the second.

Compared with LRIANLFYQRLWDLAFGGGG [20E22-3-E8-IGFR], FYDAIDQLVRGSARAGGTRD [R20α-3-2082-IR] is higher in “IGF-1R/IR Comparison” value: 11.1 ratio for the first, 12.9 ratio for the second.

Going from QGGSASFYDAIDRLLRMRIGG [20E2A-4-F11-IGFR] to EGSGFYGYFFSLLGLQG [NNRPy-4-A9-IR], the “IGF-1R/IR Comparison” value falls from 14.6 ratio to 7.1 ratio.

Going from QGNVLDFYGWIGRLLAKQGSD [20E2B-3-D12-IGFR] to ASSASGFYELLQRLAGLGLEV [20E2B-3-C4-1GFR], the “IGF-1R/IR Comparison” value falls from 7.3 ratio to 6.2 ratio.

First: RFSTDGFYQYLLALVGGGPVG [20E28-1-A11-ICFR]
Second: GVRAMSFYDALVSVLGLGPSG [20E2B-1-A6-IGFR]
The “IGF-1R/IR Comparison” value of the first is lower: 9.7 ratio for the first, 16.8 ratio for the second.

Compared with SSYGCDGFYLMLFSLGLVASQELEC (disulfide 5-25 (inferred)) [20C-3-A1-IGFR], GGTEVDFYRALERLVRGQLGL [20E23-3-D8-IGFR] is lower in “IGF-1R/IR Comparison” value: 13.7 ratio for the first, 11.3 ratio for the second.

For ICTGQGFYQVLCGLLRGTSAR (disulfide 2-12 (inferred)) [20E2B-2-B3-IGFR], the “IGF-1R/IR Comparison” value was 7.4 ratio.

Target: T2, Insulin receptor prepared according to Bass et al., 1996: soluble human insulin receptor-immunoglobulin heavy … (human, UniProt P06213 28-956)
T2 construct: extracellular domain; Eu3+-labelled in TR-FRET; also called IR; sIR-Fc; not shown: immunoglobulin heavy chain constant domains that replace the transmembrane and i
Assay: phage ELISA, vs IGF-1R

RGIVAMVEATEVGSDHDPFYHKLSELVQGS [B6Hα-2-C7-IR] and GNGDGMFYQLLSLLVGRDMHV [20E22-3-C2-IGFR] are the same in “IR/IGF-1R Comparison” value: 0.1 ratio for the first, 0.1 ratio for the second.

First: IWATGDFYRLLSQLVMGRVGT [20E2B-2-88-IGFR]
Second: FFYDCLAALLQGVARYHDLCAVEIT (disulfide 5-20 (inferred)) [20C-4-C7-IGFR]
The “IR/IGF-1R Comparison” value of the first is higher: 0.1 ratio for the first, under 0.1 ratio for the second.

PVGVQGFYEGLSRLVLGRGGW [20E22-4-F8-IGFR] and DSVGDNFYQLLESLVGGHGVG [20E28-3-D6-IGFR] are the same in “IR/IGF-1R Comparison” value: 0.1 ratio for the first, 0.1 ratio for the second.

LKDGFYDYFWQRLHLGS [NNRPγ-4-B11-IR] and DRAFYNGLRDLVGAVYGAWD [R20α-4-20C11-IR] are the same in “IR/IGF-1R Comparison” value: 0.1 ratio for the first, 0.1 ratio for the second.

LRIANLFYQRLWDLAFGGGG [20E22-3-E8-IGFR] and FYDAIDQLVRGSARAGGTRD [R20α-3-2082-IR] are the same in “IR/IGF-1R Comparison” value: 0.1 ratio for the first, 0.1 ratio for the second.

QGGSASFYDAIDRLLRMRIGG [20E2A-4-F11-IGFR] and EGSGFYGYFFSLLGLQG [NNRPy-4-A9-IR] are the same in “IR/IGF-1R Comparison” value: 0.1 ratio for the first, 0.1 ratio for the second.

Going from QGNVLDFYGWIGRLLAKQGSD [20E2B-3-D12-IGFR] to ASSASGFYELLQRLAGLGLEV [20E2B-3-C4-1GFR], the “IR/IGF-1R Comparison” value rises from 0.1 ratio to 0.2 ratio.

RFSTDGFYQYLLALVGGGPVG [20E28-1-A11-ICFR] and GVRAMSFYDALVSVLGLGPSG [20E2B-1-A6-IGFR] are the same in “IR/IGF-1R Comparison” value: 0.1 ratio for the first, 0.1 ratio for the second.

SSYGCDGFYLMLFSLGLVASQELEC (disulfide 5-25 (inferred)) [20C-3-A1-IGFR] and GGTEVDFYRALERLVRGQLGL [20E23-3-D8-IGFR] are the same in “IR/IGF-1R Comparison” value: 0.1 ratio for the first, 0.1 ratio for the second.

In the case of ICTGQGFYQVLCGLLRGTSAR (disulfide 2-12 (inferred)) [20E2B-2-B3-IGFR], the “IR/IGF-1R Comparison” value is reported as 0.1 ratio.

Target: T1, Soluble IGF-1R (R&D Systems, Cat. # …)
Assay: phage ELISA vs milk

Going from RGIVAMVEATEVGSDHDPFYHKLSELVQGS [B6Hα-2-C7-IR] to GNGDGMFYQLLSLLVGRDMHV [20E22-3-C2-IGFR], the “Ratio over Background” value rises from 6.7 fold to 8.9 fold.

First: IWATGDFYRLLSQLVMGRVGT [20E2B-2-88-IGFR]
Second: FFYDCLAALLQGVARYHDLCAVEIT (disulfide 5-20 (inferred)) [20C-4-C7-IGFR]
The “Ratio over Background” value of the first is lower: 5.7 fold for the first, 28 fold for the second.

First: PVGVQGFYEGLSRLVLGRGGW [20E22-4-F8-IGFR]
Second: DSVGDNFYQLLESLVGGHGVG [20E28-3-D6-IGFR]
The “Ratio over Background” value of the first is lower: 7.3 fold for the first, 17.8 fold for the second.

Going from LKDGFYDYFWQRLHLGS [NNRPγ-4-B11-IR] to DRAFYNGLRDLVGAVYGAWD [R20α-4-20C11-IR], the “Ratio over Background” value rises from 18.7 fold to 30.8 fold.

Compared with LRIANLFYQRLWDLAFGGGG [20E22-3-E8-IGFR], FYDAIDQLVRGSARAGGTRD [R20α-3-2082-IR] is higher in “Ratio over Background” value: 16.7 fold for the first, 39.9 fold for the second.

Compared with QGGSASFYDAIDRLLRMRIGG [20E2A-4-F11-IGFR], EGSGFYGYFFSLLGLQG [NNRPy-4-A9-IR] is lower in “Ratio over Background” value: 18.8 fold for the first, 10 fold for the second.

Going from QGNVLDFYGWIGRLLAKQGSD [20E2B-3-D12-IGFR] to ASSASGFYELLQRLAGLGLEV [20E2B-3-C4-1GFR], the “Ratio over Background” value rises from 6.2 fold to 20.4 fold.

Compared with RFSTDGFYQYLLALVGGGPVG [20E28-1-A11-ICFR], GVRAMSFYDALVSVLGLGPSG [20E2B-1-A6-IGFR] is higher in “Ratio over Background” value: 9.5 fold for the first, 18.1 fold for the second.

Going from SSYGCDGFYLMLFSLGLVASQELEC (disulfide 5-25 (inferred)) [20C-3-A1-IGFR] to GGTEVDFYRALERLVRGQLGL [20E23-3-D8-IGFR], the “Ratio over Background” value falls from 20.8 fold to 17.7 fold.

ICTGQGFYQVLCGLLRGTSAR (disulfide 2-12 (inferred)) [20E2B-2-B3-IGFR] was tested, and the “Ratio over Background” value was 5.3 fold.

Target: T2, Insulin receptor prepared according to …
Assay: phage ELISA vs milk

Compared with RGIVAMVEATEVGSDHDPFYHKLSELVQGS [B6Hα-2-C7-IR], GNGDGMFYQLLSLLVGRDMHV [20E22-3-C2-IGFR] is lower in “Ratio over Background” value: 1 fold for the first, 0.6 fold for the second.

Going from IWATGDFYRLLSQLVMGRVGT [20E2B-2-88-IGFR] to FFYDCLAALLQGVARYHDLCAVEIT (disulfide 5-20 (inferred)) [20C-4-C7-IGFR], the “Ratio over Background” value rises from 0.8 fold to 1.3 fold.

Compared with PVGVQGFYEGLSRLVLGRGGW [20E22-4-F8-IGFR], DSVGDNFYQLLESLVGGHGVG [20E28-3-D6-IGFR] is higher in “Ratio over Background” value: 0.8 fold for the first, 2.6 fold for the second.

Compared with LKDGFYDYFWQRLHLGS [NNRPγ-4-B11-IR], DRAFYNGLRDLVGAVYGAWD [R20α-4-20C11-IR] is higher in “Ratio over Background” value: 1.2 fold for the first, 3 fold for the second.

Going from LRIANLFYQRLWDLAFGGGG [20E22-3-E8-IGFR] to FYDAIDQLVRGSARAGGTRD [R20α-3-2082-IR], the “Ratio over Background” value rises from 1.5 fold to 3.1 fold.

Compared with QGGSASFYDAIDRLLRMRIGG [20E2A-4-F11-IGFR], EGSGFYGYFFSLLGLQG [NNRPy-4-A9-IR] is higher in “Ratio over Background” value: 1.3 fold for the first, 1.4 fold for the second.

First: QGNVLDFYGWIGRLLAKQGSD [20E2B-3-D12-IGFR]
Second: ASSASGFYELLQRLAGLGLEV [20E2B-3-C4-1GFR]
The “Ratio over Background” value of the first is lower: 0.9 fold for the first, 3.3 fold for the second.

Compared with RFSTDGFYQYLLALVGGGPVG [20E28-1-A11-ICFR], GVRAMSFYDALVSVLGLGPSG [20E2B-1-A6-IGFR] is higher in “Ratio over Background” value: 1 fold for the first, 1.1 fold for the second.

Compared with SSYGCDGFYLMLFSLGLVASQELEC (disulfide 5-25 (inferred)) [20C-3-A1-IGFR], GGTEVDFYRALERLVRGQLGL [20E23-3-D8-IGFR] is higher in “Ratio over Background” value: 1.5 fold for the first, 1.6 fold for the second.

In the case of ICTGQGFYQVLCGLLRGTSAR (disulfide 2-12 (inferred)) [20E2B-2-B3-IGFR], the “Ratio over Background” value is reported as 0.7 fold.
